Test results published in paper PMC6793842.

B1: unnamed (parent)
chain 1: FENAIKKTKNQENNLTLLPIKSTEEEKDDIKNGKDIKKEIDNDKENIKTNNAKDHSTYIKSYLNTNVNDGLKYLFIPSHNSFIKKYSVFNQINDGMLLNEKNDVKNNEDYKNVDYKNVNFLQYDFKELSNYNIANSIDILQEKEGHLDFVIIPHYTFLDYYKHLSYNSIYHKYSTHGKYIAVDAFIKKINERYDQVKSKCNDIKNDLIATIKKLEHPYDINNKNDDSYRYDISEEIDDKSEETDDETEEVEDSIQDTDSNHTPSNKKKNDLMNRTFKKMMDEYNTKKKKLIKCIKNHENDFNKICMDMKNYGTNLFEQLSCYNNNFCNTNGIRYHYDEYIHKLILSVKSKNLNKDLSDMTNILQQSELLLTNLNKKMGSYIYIDTIKFIHKEMKHIFNRIEYHTKIINDKTKIIQDKIKLNIWRTFQKDELLKRILDMSNEYSLFITSDHLRQMLYNTFYSKEKHLNNIFHHLIYVLQMKFNDVPIKMEYFQTYKKNKPLTQ
chain 2: EPGTVFTTVEDLGSKILLTCSLNDSATEVTGHRWLKGGVVLKEDALPGQKTEFKVDSDDQWGEYSCVFLPEPMGTANIQLHGPPRVKAVKSSEHINEGETAMLVCKSESVPPVTDWAWYKITDSEDKALMNGSESRFFVSSSQGRSELHIENLNMEADPGQYRCNGTSSKGSDQAIITLRVRSHLAAL

Variants of: B1
Assay: SPR
Conditions: read off a plot; for response (response units): with partner chain of the complex shown, plateau of the highest curve of four 2-fold serial dilutions (600 to 75 nM); for screen value: with partner chain of the complex shown;

| Variant | response (response units) | screen value [s] |
| --- | --- | --- |
| chain 1 R192T | 180 | 2.3 |
| chain 1 Y179C | 130 | 1.5 |
| chain 1 Y173S | 260 | 2.3 |
